Test results reported in PMC5405427.

Experiments:
IBV nsp9 wild-type [1] = target: T1, IBV nsp9 wild-type (avian infectious bronchitis virus (IBV) …, UniProt P0C6Y3 3675-3785); assay: zone-interference gel electrophoresis
T1 sequence: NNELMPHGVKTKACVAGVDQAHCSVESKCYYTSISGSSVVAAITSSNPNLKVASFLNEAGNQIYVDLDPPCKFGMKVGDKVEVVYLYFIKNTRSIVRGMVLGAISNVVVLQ

IBV nsp9 wild-type [2] = target: T1, IBV nsp9 wild-type; assay: BLI

| Binder | binding result (IBV nsp9 wild-type [1]) | Kd (IBV nsp9 wild-type [2]) [µM] |
| --- | --- | --- |
| CGACTCATGGACCTTGGCAG (ssDNA) [20-mer ssDNA] | binds | – |
| CGACUCAUGGACCUUGGCAG (ssRNA, phosphorothioate linkages at last two 3' residues (A19, G20)) [20-mer RNA, biotin (BLI)] | – | 28 |
